Patent US12649008B2, “Peptide receptor radionuclide therapy” (The Regents of the University of California, priority 2020, dated 2026)
Where two headings read alike, the source gives them in different places.

Columns and labels:
[1] = Biodistribution in mice bearing BxPC-3 tumors; format: in vivo; conditions: female, nu/nu nude, mouse, iv, total radioactivity; for tissue uptake at 1 h: 1 h p.i.; for tissue uptake at 4 h: 4 h p.i.; for tissue uptake at 24 h: 24 h p.i.; for tissue uptake at 48 h: 48 h p.i.; for tissue uptake at 72 h: 72 h p.i.
Experimental: (§1) Female nu/nu nude mice (6-8 weeks old) were purchased from Charles River Laboratories (Wilmington, MA, USA) and handled according to the UC Davis Institutional Animal Care and Use Committee. BxPC-3 cells (5×10^6) in 100 μl 1:1 GFR-Matrigel: serum-free RPMI were implanted subcutaneously into the left shoulder flank and allowed to grow for approximately 2 weeks (therapy study) and 3 weeks (0.5-1 cm in diameter, for imaging and biodistribution studies). All cells were evaluated with flow cytometry before injection to confirm integrin expression levels. Food and water were available ad libitum.
(§2) For blocking studies, respective non-chelated cold peptide (30 mg/kg, 10 mg/mL (DOTA-5G) and 48 mg/kg, 16 mg/mL (DOTA-ABM-5G) solution in PBS) was injected 10 min. before the formulated radiotracer. At each time point, the mice (n=3/time point/radiotracer) were anesthetized and sacrificed. The tissues were collected, rinsed with PBS, and the radioactivity of each measured with a gamma counter. Radioactivity concentrations were calibrated, decay-corrected, and expressed as percent of injected dose per gram of tissue (% ID/g).

BxPC-3 (αvβ6 (+)) tumors = test: Biodistribution in mice bearing BxPC-3 tumors; format: in vivo
Experimental: as §1, §2

αvβ6 (+) BxPC-3 tumors = test: In vivo targeted radionuclide therapy; design: species or system mice
Experimental: as §1
For in vivo targeted radionuclide therapy, mice were implanted subcutaneously with BxPc-3 tumor cells 14 days before start of treatment. Mice were randomly chosen and divided into four treatment groups: Control Saline (Group 1, n=5); Control Peptide DOTA-ABM-5G (Group 2, n=6); 1×74 MBq [^177Lu]Lu DOTA-ABM-5G (Group 3, n=10); and 2×37 MBq [^177Lu]Lu DOTA-ABM-5G (Group 4, n=7). Average tumor volume at the start of the treatment was 14-218 mm^3. Group 2 received 20 μg of peptide DOTA-ABM-5G per mouse as a control. Group 3 received 74 MBq on day 14 post-tumor implant (treatment day 0), and Group 4 received two doses of 37 MBq on day 14 and 21 post-tumor implant (treatment days 0 and 7), at a specific activity of 18.5 MBq/nmol. Body weights and tumor volumes were measured the day before treatment, and twice a week post-treatment throughout the study. Tumor volume (TV) was determined according to the equation TV=(π/6)*L*W*H, where L is the longest axis, W is the axis perpendicular to L and H is perpendicular to the plane of L and W. End point determination was based on the longest axis of TV exceeding 2 cm, active ulceration, or compromised health of the mouse, including >20% loss of body weight from the start of the study. Survival curves are depicted as a Kaplan-Meier plot, using start of treatment as day 0.

[2] = BxPC-3 tumor, read-out: uptake BxPC-3 tumor
[3] = bladder, read-out: uptake Bladder
[4] = gall bladder, read-out: uptake Gall Bladder
[5] = kidneys, read-out: uptake Kidneys
[6] = large intestines, read-out: uptake Lg Intestines
[7] = muscle, read-out: uptake Muscle
[8] = pancreas, read-out: uptake Pancreas
[9] = small intestines, read-out: uptake Sm Intestines
[10] = spleen, read-out: uptake Spleen
[11] = stomach, read-out: uptake Stomach

CNC(=O)C(CCCCNC(=O)C(CC(=O)O)NC(=O)CCCNC(=O)CCCc1ccc(I)cc1)NC(=O)CN1CCN2CCN3CCN(CC1)CC(=O)[O][177Lu]([O]C(=O)C2)[O]C(=O)C3 (stereo not drawn) [[^177Lu]Lu DOTA-ABM-5G]
tissue uptake at 1 h [1, 2]: 4.54 ± 0.42 %ID/g | tissue uptake at 4 h [1, 2]: 7.15 ± 3.04 %ID/g | tissue uptake at 24 h [1, 2]: 5.25 ± 0.71 %ID/g | tissue uptake at 48 h [1, 2]: 5.12 ± 0.47 %ID/g | tissue uptake at 72 h [1, 2]: 5.29 ± 0.75 %ID/g | tissue uptake at 1 h [1, 3]: 6.75 ± 2.39 %ID/g | tissue uptake at 24 h [1, 3]: 2.91 ± 0.16 %ID/g | tissue uptake at 48 h [1, 3]: 2.69 ± 0.33 %ID/g | tissue uptake at 72 h [1, 3]: 3.29 ± 0.63 %ID/g | tissue uptake at 1 h ([1]; blood, read-out: uptake Blood): 5.36 ± 0.71 %ID/g | tissue uptake at 24 h ([1]; blood, read-out: uptake Blood): 0.08 ± 0.01 %ID/g | tissue uptake at 48 h ([1]; blood, read-out: uptake Blood): 0.02 %ID/g | tissue uptake at 72 h ([1]; blood, read-out: uptake Blood): 0.01 %ID/g | tissue uptake at 1 h ([1]; bone, read-out: uptake Bone): 0.66 ± 0.15 %ID/g | tissue uptake at 24 h ([1]; bone, read-out: uptake Bone): 0.27 ± 0.08 %ID/g | tissue uptake at 48 h ([1]; bone, read-out: uptake Bone): 0.16 ± 0.19 %ID/g | tissue uptake at 72 h ([1]; bone, read-out: uptake Bone): 0.19 ± 0.13 %ID/g | tissue uptake at 1 h ([1]; brain, read-out: uptake Brain): 0.14 ± 0.01 %ID/g | tissue uptake at 24 h ([1]; brain, read-out: uptake Brain): 0.04 ± 0.01 %ID/g | tissue uptake at 48 h ([1]; brain, read-out: uptake Brain): 0.02 %ID/g | tissue uptake at 72 h ([1]; brain, read-out: uptake Brain): 0.03 %ID/g | tissue uptake at 1 h [1, 4]: 1.72 ± 0.46 %ID/g | tissue uptake at 24 h [1, 4]: 1.11 ± 0.71 %ID/g | tissue uptake at 48 h [1, 4]: 0.71 ± 0.13 %ID/g | tissue uptake at 72 h [1, 4]: 1.09 ± 0.61 %ID/g | tissue uptake at 1 h ([1]; heart, read-out: uptake Heart): 2.05 ± 0.37 %ID/g | tissue uptake at 24 h ([1]; heart, read-out: uptake Heart): 0.71 ± 0.05 %ID/g | tissue uptake at 48 h ([1]; heart, read-out: uptake Heart): 0.64 ± 0.06 %ID/g | tissue uptake at 72 h ([1]; heart, read-out: uptake Heart): 0.46 ± 0.11 %ID/g | tissue uptake at 1 h [1, 5]: 20.9 ± 3.1 %ID/g | tissue uptake at 24 h [1, 5]: 12.3 ± 1.24 %ID/g | tissue uptake at 48 h [1, 5]: 10.1 ± 1.04 %ID/g | tissue uptake at 72 h [1, 5]: 8.84 ± 1.15 %ID/g | tissue uptake at 1 h [1, 6]: 6.31 ± 1.86 %ID/g | tissue uptake at 4 h [1, 6]: < 7 %ID/g | tissue uptake at 24 h [1, 6]: 3.63 ± 0.09 %ID/g | tissue uptake at 48 h [1, 6]: 3.13 ± 0.53 %ID/g | tissue uptake at 72 h [1, 6]: 3.01 ± 0.44 %ID/g | tissue uptake at 1 h ([1]; liver, read-out: uptake Liver): 1.05 ± 0.05 %ID/g | tissue uptake at 4 h ([1]; liver, read-out: uptake Liver): < 1 %ID/g | tissue uptake at 24 h ([1]; liver, read-out: uptake Liver): 0.22 ± 0.01 %ID/g | tissue uptake at 48 h ([1]; liver, read-out: uptake Liver): 0.16 ± 0.02 %ID/g | tissue uptake at 72 h ([1]; liver, read-out: uptake Liver): 0.12 ± 0.01 %ID/g | tissue uptake at 1 h ([1]; lung, read-out: uptake Lung): 2.68 ± 0.21 %ID/g | tissue uptake at 24 h ([1]; lung, read-out: uptake Lung): 1.1 ± 0.15 %ID/g | tissue uptake at 48 h ([1]; lung, read-out: uptake Lung): 0.68 ± 0.08 %ID/g | tissue uptake at 72 h ([1]; lung, read-out: uptake Lung): 0.53 ± 0.1 %ID/g | tissue uptake at 1 h [1, 7]: 0.96 ± 0.24 %ID/g | tissue uptake at 24 h [1, 7]: 0.52 ± 0.08 %ID/g | tissue uptake at 48 h [1, 7]: 0.52 ± 0.03 %ID/g | tissue uptake at 72 h [1, 7]: 0.42 ± 0.02 %ID/g | tissue uptake at 1 h [1, 8]: 0.92 ± 0.07 %ID/g | tissue uptake at 24 h [1, 8]: 0.6 ± 0.11 %ID/g | tissue uptake at 48 h [1, 8]: 0.5 ± 0.09 %ID/g | tissue uptake at 72 h [1, 8]: 0.36 ± 0.12 %ID/g | tissue uptake at 1 h ([1]; skin, read-out: uptake Skin): 2.16 ± 0.35 %ID/g | tissue uptake at 24 h ([1]; skin, read-out: uptake Skin): 1.49 ± 0.57 %ID/g | tissue uptake at 48 h ([1]; skin, read-out: uptake Skin): 0.95 ± 0.05 %ID/g | tissue uptake at 72 h ([1]; skin, read-out: uptake Skin): 1.08 ± 0.16 %ID/g | tissue uptake at 1 h [1, 9]: 5.46 ± 0.54 %ID/g | tissue uptake at 24 h [1, 9]: 3.02 ± 0.32 %ID/g | tissue uptake at 48 h [1, 9]: 1.74 ± 0.22 %ID/g | tissue uptake at 72 h [1, 9]: 0.71 ± 0.16 %ID/g | tissue uptake at 1 h [1, 10]: 0.75 ± 0.03 %ID/g | tissue uptake at 24 h [1, 10]: 0.12 ± 0.01 %ID/g | tissue uptake at 48 h [1, 10]: 0.1 ± 0.02 %ID/g | tissue uptake at 72 h [1, 10]: 0.1 ± 0.01 %ID/g | tissue uptake at 1 h [1, 11]: 9.16 ± 0.58 %ID/g | tissue uptake at 24 h [1, 11]: 7.55 ± 1.45 %ID/g | tissue uptake at 48 h [1, 11]: 5.49 ± 0.27 %ID/g | tissue uptake at 72 h [1, 11]: 4.76 ± 1.22 %ID/g | BxPC-3/kidney ratio (BxPC-3 (αvβ6 (+)) tumors; 1 h p.i.): 0.22±0.05 | BxPC-3/large intestine ratio (BxPC-3 (αvβ6 (+)) tumors; 1 h p.i.): 0.77±0.25 | BxPC-3/stomach ratio (BxPC-3 (αvβ6 (+)) tumors; 1 h p.i.): 0.50±0.08 | uptake Blood (BxPC-3 (αvβ6 (+)) tumors; 1 h p.i.): 5.36±0.71 % ID/g | uptake BxPC-3 tumor (BxPC-3 (αvβ6 (+)) tumors; 1 h p.i.): 4.54±0.42 % ID/g | uptake Kidneys (BxPC-3 (αvβ6 (+)) tumors; 1 h p.i.): 20.89±3.1 % ID/g | uptake Stomach (BxPC-3 (αvβ6 (+)) tumors; 1 h p.i.): 9.16±0.58 % ID/g | BxPC-3/kidney ratio (BxPC-3 (αvβ6 (+)) tumors; 72 h p.i.): 0.60±0.02 | BxPC-3/large intestine ratio (BxPC-3 (αvβ6 (+)) tumors; 72 h p.i.): 1.77±0.26 | BxPC-3/stomach ratio (BxPC-3 (αvβ6 (+)) tumors; 72 h p.i.): 1.16±0.30 | uptake Blood (BxPC-3 (αvβ6 (+)) tumors; 72 h p.i.): 0.01±0.00 % ID/g | uptake BxPC-3 tumor (BxPC-3 (αvβ6 (+)) tumors; 72 h p.i.): 5.29±0.75 % ID/g | uptake Kidneys (BxPC-3 (αvβ6 (+)) tumors; 72 h p.i.): 8.84±1.15 % ID/g | uptake Stomach (BxPC-3 (αvβ6 (+)) tumors; 72 h p.i.): 4.76±1.22 % ID/g | uptake in BxPC-3 tumor as compared to [^177Lu]Lu DOTA-5G (BxPC-3 (αvβ6 (+)) tumors; at all times (1-72 h)): at least 4 fold | median survival post-treatment (αvβ6 (+) BxPC-3 tumors; Group 3, 1×74 MBq): 82 days | median survival post-treatment (αvβ6 (+) BxPC-3 tumors; Group 4, 2×37 MBq (days 0 and 7)): 113 days | adverse events and weight loss during the study (αvβ6 (+) BxPC-3 tumors; any group, 120 days): No adverse events and weight loss | adverse reaction to treatment in blood chemistry (αvβ6 (+) BxPC-3 tumors; mouse, in vivo): no adverse reaction
